According to publication PMC5424160 (2017):

Target: GST-CDK9 (Homo sapiens (Human), UniProt P50750)
Test: GST pull-down

Sequence of GST-CDK9 (P50750 whole entry): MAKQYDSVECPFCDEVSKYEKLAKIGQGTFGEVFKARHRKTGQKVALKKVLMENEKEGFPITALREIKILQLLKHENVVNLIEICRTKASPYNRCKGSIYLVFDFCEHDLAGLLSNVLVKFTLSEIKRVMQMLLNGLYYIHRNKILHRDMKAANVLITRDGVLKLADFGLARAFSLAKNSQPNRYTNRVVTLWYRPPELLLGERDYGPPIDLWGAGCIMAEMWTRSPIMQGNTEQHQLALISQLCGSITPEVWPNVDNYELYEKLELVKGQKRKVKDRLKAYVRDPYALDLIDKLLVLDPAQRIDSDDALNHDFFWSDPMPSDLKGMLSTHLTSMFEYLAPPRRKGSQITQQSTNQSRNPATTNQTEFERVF

B1: His-Menin (protein)
chain: MGLKAAQKTLFPLRSIDDVVRLFAAELGREEPDLVLLSLVLGFVEHFLAVNRVIPTNVPELTFQPSPAPDPPGGLTYFPVADLSIIAALYARFTAQIRGAVDLSLYPREGGVSSRELVKKVSDVIWNSLSRSYFKDRAHIQSLFSFITGTKLDSSGVAFAVVGACQALGLRDVHLALSEDHAWVVFGPNGEQTAEVTWHGKGNEDRRGQTVNAGVAERSWLYLKGSYMRCDRKMEVAFMVCAINPSIDLHTDSLELLQLQQKLLWLLYDLGHLERYPMALGNLADLEELEPTPGRPDPLTLYHKGIASAKTYYRDEHIYPYMYLAGYHCRNRNVREALQAWADTATVIQDYNYCREDEEIYKEFFEVANDVIPNLLKEAASLLEAGEERPGEQSQGTQSQGSALQDPECFAHLLRFYDGICKWEEGSPTPVLHVGWATFLVQSLGRFEGQVRQKVRIVSREAEAAEAEEPWGEEAREGRRRGPRRESKPEEPPPPKKPALDKGLGTGQGAVSGPPRKPPGTVAGTARGPEGGSTAQVPAPTASPPPEGPVLTFQSEKMKGMKELLVATKINSSAIKLQLTAQSQVQMKKQKVSTPSDYTLSFLKRQRKGL
  binding result: no binding
